Assay results: the supplement of paper PMC12042874
± gives the uncertainty stated by the source.

assay: amyloid nucleation score (Sup35N fusion, yeast selection) (log enrichment); library NNK2; higher = more nucleation; inactive = no reads after selection
Outline: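 Output and input plasmid inserts were sequenced by Illumina after psi-negative yeast carrying Sup35N fused to peptides of 20 random codons had been induced 24 hours with 100 μM copper sulfate and grown 7 days at 30°C on medium lacking adenine and uracil. The nucleation score is the DiMSum log enrichment of output over input reads, centred on the mode score of non-aggregating sequences. Sequences with under 100 input reads were excluded.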

| Substance | amyloid nucleation score |
| --- | --- |
| CNIVPYRPINGWIPDVLLED | -0.275 ± 0.79 |
| CNNQEMPTSGWMSCFSCALC | 1.48 ± 0.32 |
| CNRYWGRPHGYFFSSSMCMV | -1.28 ± 0.75 |
| CNSQVVWFFRI | 4.69 ± 0.062 |
| CNSRNMVTGISM | 0.034 ± 1.1 |
| CNVAHRLRVRSVAK | 0.789 ± 0.47 |
| CNVDYLSDVYYHVPMQDQSL | 0.368 ± 0.48 |
| CNWLYF | 0.395 ± 0.8 |
| CNYMPVPRPSMVMSFVSVTV | inactive |
| CPEDVAEFMCRALFRSISIG | 0.45 ± 0.74 |
| CPVAQYQG | -0.308 ± 0.21 |
| CRAHMCLQFNYWTRVMNTPT | 6.809 ± 0.068 |
| CRFALSMYNWVLYNRNFQLI | -0.363 ± 1.1 |
| CRFLRA | -0.051 ± 0.79 |
| CRHMSDHWKSSR | -0.562 ± 0.54 |
| CRISQTFF | 1.82 ± 0.15 |
| CRKYKLRHRADDCSMYCTRL | 3.33 ± 0.14 |
| CRLGLLF | 0.767 ± 0.66 |
| CRMNDNSDWVRYAGHKAMAS | 1.2 ± 0.27 |
| CRSHVAGFDAHTNILLKPIC | -0.346 ± 0.64 |
| CRWTASAIHARGRVSDRMRD | 0.05 ± 0.29 |
| CRYYSNPAPSPRLVN | inactive |
| CSFDVYNSDCTTHDDIINNF | -1.43 ± 1 |
| CSFSADCVSRSGGRSFSP | -0.834 ± 0.63 |

| Substance | amyloid nucleation score |
| --- | --- |
| CSFVLVFVIIQ | 3.49 ± 0.12 |
| CSIGLRCGNVMLPTEWVSNC | -0.763 ± 0.32 |
| CSPCFLSCGPYNNGPE | 7.537 ± 0.074 |
| CSSENLSLLIYSIKVGNGF | 3.28 ± 0.12 |
| CSWLLTH | -0.461 ± 0.48 |
| CSYVDRTLGSNLWVVRSNSQ | 0.737 ± 0.51 |
| CSYVNRLWVDSSVGHEEDAG | inactive |
| CTAHYYCQGCWTSRMLNLTA | -0.116 ± 0.47 |
| CTAYYCDVSLNYVVRYNFPL | inactive |
| CTFKFMAVQFCG | 5.46 ± 0.073 |
| CTFSRMSVFACILANQSVFY | 7.861 ± 0.038 |
| CTHHKCVWGIWSTFSVDSEL | -0.288 ± 1.1 |
| CTHWLDPDFVL | -0.666 ± 0.79 |
| CTIVYF | 1.13 ± 0.27 |
| CTLLFTLSYSVS | 4.245 ± 0.037 |
| CTLVFKGLGCKSVELGGTFC | -0.564 ± 0.61 |
| CTMWVDVCLSCDHMRYDNGG | 5.96 ± 0.093 |
| CTSLLI | -0.545 ± 0.48 |
| CTSLRYFCARFELLSAHSKW | 0.199 ± 0.4 |
| CTSYTEDFLWCFHNVTWKVR | 0.105 ± 0.8 |
| CVAVDDD | 0.624 ± 0.46 |
| CVFAHFCCLFASMMPCKFSW | -0.127 ± 1 |
| CVFKVVPLVL | 0.005 ± 1 |
| CVFLHSALSQYRVIIVTWYP | -0.237 ± 0.63 |

| Substance | amyloid nucleation score |
| --- | --- |
| CVFRHTVIYGLGAGW | 2.65 ± 0.14 |
| CVHIKEVLAWLDRCGLGYVW | 0.662 ± 0.81 |
| CVILDWSVVCFMELVINSRS | 3.21 ± 0.065 |
| CVKDQSSRRRWLIYWAHSLS | -0.145 ± 0.76 |
| CVLMTALNLRKRSVGMPFCW | 4.67 ± 0.077 |
| CVLSLNTGTASWITHVWKLY | 0.349 ± 0.5 |
| CVNYYVYANHRRISYWW | -0.337 ± 1.1 |
| CVVEQALLLWN | -0.243 ± 0.79 |
| CVVTSVIENGFFLQFIMFYQ | inactive |
| CVYRASIVRSRSNYEAVWYS | 0.341 ± 0.24 |
| CVYWWASGE | inactive |
| CWCSLRRFTMLCNMRMNWDN | 1.91 ± 0.086 |
| CWVAYERSHTFRPKNQFFMH | 1.02 ± 0.53 |
| CYFSLQNSKDMRDLELDAIN | -1.46 ± 0.55 |
| CYGRIM | 1.74 ± 0.099 |
| CYNLCCLPFCGVNLMFWLQV | 7.992 ± 0.033 |
| CYRHVLFKATLKWCNFAVFI | 7.383 ± 0.046 |
| CYRVVTLFNFK | 6.178 ± 0.029 |
| CYSLWRFEQMKLGMKLRGMT | 0.003 ± 0.43 |
| DAAEISGLCLYDFLTGDLEQ | 2.27 ± 0.12 |
| DAHTMIGRYTDSSLRHRTWV | 1.05 ± 0.3 |
| DALQSSFTTLLLYNAIEDVY | -0.317 ± 0.35 |
